167 variants from the Human Domainome abundance scans (Beltran et al. 2025) can be followed below.

To fix the notation:
B1: Transcription factor SOX-11, residues 50 to 117; numbered along this chain, P35716 (parent)
chain: KRPMNAFMVWSKIERRKIMEQSPDMHNAEISKRLGKRWKMLKDSEKIPFIREAERLRLKHMADYPDYK

± gives the uncertainty stated by the source.

Variants of B1 are the subject of the data set. The experiment in a line: abundance fitness (aPCA) (normalised: wild type 0, dead -1); higher = more abundant; growth selection in yeast, the domain comes from the species named. As to conditions: Homo sapiens.
For W10A, the abundance fitness is -0.543 ± 0.12. With W10N, the abundance fitness was -0.594 ± 0.079. For the variant W10D, the abundance fitness was -0.781 ± 0.14. For W10H, the abundance fitness is -0.783 ± 0.11. In the case of W10S it was -0.913 ± 0.1; in that of W10I, -0.961 ± 0.099. Turning to W10T, the abundance fitness was -0.576 ± 0.097. W10G: the abundance fitness was -0.797 ± 0.14. Turning to W10L, the abundance fitness was -0.819 ± 0.095.

For the variant W10P, the abundance fitness is -0.589 ± 0.13. As for W10V, the abundance fitness is -0.872 ± 0.13. Turning to W10Q, the abundance fitness was -1.09 ± 0.33.

Consider W10M, for which the abundance fitness was -0.345 ± 0.14.

For the variant W10C, the abundance fitness was -1.01 ± 0.14. As to W10F, the abundance fitness is -0.253 ± 0.054.

As for W10K, the abundance fitness was -0.627 ± 0.23. In the case of W10Y it was -0.375 ± 0.065; in that of R16E, 0.082 ± 0.15. As for R16D, the abundance fitness is -0.036 ± 0.075. On to R16G, for which the abundance fitness is -0.105 ± 0.056. R16H: the abundance fitness is -0.001 ± 0.069.

In the case of R16A, the abundance fitness amounted to 0.218 ± 0.062.

As to R16Y, the abundance fitness was -0.372 ± 0.064. For the variant R16F, the abundance fitness was -0.319 ± 0.058. For the variant R16I, the abundance fitness amounted to 0.002 ± 0.054. In the case of R16L it was -0.015 ± 0.065; in that of R16W, -0.956 ± 0.4; in that of R16Q, 0.199 ± 0.21. As for R16V, the abundance fitness came to 0 ± 0.054. For R16T, the abundance fitness was -0.212 ± 0.075. Consider R16S, for which the abundance fitness was -0.134 ± 0.049. For the variant R16P, the abundance fitness was -0.089 ± 0.1. With R16M, the abundance fitness is -0.667 ± 0.21. For F7D, the abundance fitness was -0.848 ± 0.13. F7L: the abundance fitness was -0.958 ± 0.12. Regarding F7I, the abundance fitness was -0.795 ± 0.1. Turning to F7N, the abundance fitness was -0.795 ± 0.09. On to F7Q, for which the abundance fitness is -0.476 ± 0.21. As to F7Y, the abundance fitness is -0.203 ± 0.059. In the case of F7V it was -1.03 ± 0.14; in that of F7H, -0.879 ± 0.12; in that of F7W, -0.018 ± 0.17. Consider F7C, for which the abundance fitness was -0.534 ± 0.098.

Take F7E: the abundance fitness was -0.689 ± 0.32. As to F7R, the abundance fitness was -0.478 ± 0.082. For F7K, the abundance fitness was -0.887 ± 0.21. On to F7T, for which the abundance fitness is -0.839 ± 0.12. In the case of F7P, the abundance fitness is -0.967 ± 0.16. As to F7A, the abundance fitness is -0.75 ± 0.12. As to F7G, the abundance fitness is -0.765 ± 0.12. In the case of P23E it was -0.49 ± 0.19.

In the case of P23G, the abundance fitness was -0.431 ± 0.064. Turning to P23K, the abundance fitness is -1.28 ± 0.44.

As to P23M, the abundance fitness is -0.85 ± 0.24. For the variant P23R, the abundance fitness is -0.74 ± 0.091. P23D: the abundance fitness was -0.739 ± 0.093. Regarding P23I, the abundance fitness was -0.869 ± 0.095. In the case of P23N, the abundance fitness is -0.843 ± 0.11. As for P23A, the abundance fitness was -0.391 ± 0.079. As for P23H, the abundance fitness was -0.791 ± 0.1. With P23L, the abundance fitness was -0.287 ± 0.068. In the case of P23Q it was -0.706 ± 0.24. Regarding E14K, the abundance fitness is -0.953 ± 0.41.

Consider E14T, for which the abundance fitness is -1.16 ± 0.2. In the case of E14W, the abundance fitness is -0.734 ± 0.45. E14N: the abundance fitness was -0.338 ± 0.089. In the case of E14S it was -0.488 ± 0.067; in that of E14L, -1.05 ± 0.14; in that of E14P, -0.739 ± 0.22.

For the variant E14Q, the abundance fitness was -0.247 ± 0.19. In the case of E14V, the abundance fitness was -0.895 ± 0.084. Take E14M: the abundance fitness is -0.352 ± 0.17.

E14F: the abundance fitness was -0.645 ± 0.088. In the case of E14C it was -0.533 ± 0.11; in that of E14I, -0.722 ± 0.11; in that of E14A, -0.615 ± 0.076.

On to E14H, for which the abundance fitness was -0.577 ± 0.13. For the variant E14G, the abundance fitness is -0.771 ± 0.089.

As to E14D, the abundance fitness is -0.861 ± 0.12.

For E14Y, the abundance fitness was -0.696 ± 0.11. Consider K17W, for which the abundance fitness was -1.17 ± 0.34. On to K17G, for which the abundance fitness was -0.756 ± 0.1. As to K17M, the abundance fitness is -0.533 ± 0.21. In the case of K17V it was -0.6 ± 0.085; in that of K17C, -0.527 ± 0.075; in that of K17T, -0.458 ± 0.093. As to K17A, the abundance fitness is -0.484 ± 0.096.

For the variant K17H, the abundance fitness is -0.47 ± 0.08.

As to K17Q, the abundance fitness was -0.199 ± 0.39. As for K17Y, the abundance fitness was -0.564 ± 0.075. Take K17I: the abundance fitness was -0.403 ± 0.065. In the case of K17L, the abundance fitness is -0.373 ± 0.078. In the case of K17S it was -0.518 ± 0.067; in that of K17F, -0.531 ± 0.065.

Consider K17P, for which the abundance fitness is -0.566 ± 0.13. For the variant K17N, the abundance fitness was -0.407 ± 0.061.

With V9C, the abundance fitness was -0.448 ± 0.087. In the case of V9T it was -0.777 ± 0.12. With V9M, the abundance fitness is -0.61 ± 0.17. In the case of V9W it was -0.411 ± 0.19.

Take V9L: the abundance fitness was determined as 0.177 ± 0.054. For V9G, the abundance fitness was -0.687 ± 0.11. Regarding V9P, the abundance fitness was -0.891 ± 0.16. In the case of V9R it was -0.926 ± 0.14; in that of V9D, -0.671 ± 0.12; in that of V9H, -0.402 ± 0.087. Take V9N: the abundance fitness is -0.734 ± 0.089. Take V9Y: the abundance fitness was -0.558 ± 0.069.

In the case of V9S, the abundance fitness is -0.847 ± 0.079. Take V9I: the abundance fitness stood at 0.037 ± 0.053.

Regarding V9A, the abundance fitness is -0.644 ± 0.12. As for V9F, the abundance fitness is -0.63 ± 0.07. As for V9Q, the abundance fitness was -0.894 ± 0.25. In the case of A6Y it was -0.827 ± 0.096; in that of A6T, -0.767 ± 0.11; in that of A6S, -0.531 ± 0.068. As for A6D, the abundance fitness is -0.751 ± 0.12. Turning to A6W, the abundance fitness is -1.29 ± 0.34. For A6C, the abundance fitness is -0.634 ± 0.082. A6V: the abundance fitness was -0.629 ± 0.082. On to A6E, for which the abundance fitness was -0.338 ± 0.24. Take A6F: the abundance fitness was -0.987 ± 0.1. On to A6I, for which the abundance fitness was -0.934 ± 0.12.

In the case of A6H, the abundance fitness was -0.553 ± 0.088.

Turning to A6P, the abundance fitness is -0.524 ± 0.11. As to A6G, the abundance fitness was -0.03 ± 0.06.

For the variant A6M, the abundance fitness was -0.831 ± 0.24. In the case of A6R it was -0.776 ± 0.17; in that of A6Q, -1.05 ± 0.33; in that of A6N, -0.976 ± 0.11. In the case of A6L it was -0.666 ± 0.087; in that of P3T, -0.083 ± 0.076.

For P3S, the abundance fitness is 0.097 ± 0.062. For the variant P3R, the abundance fitness was -0.407 ± 0.077.

In the case of P3V, the abundance fitness was -0.294 ± 0.086.

Consider I13N, for which the abundance fitness is -0.372 ± 0.059.

As for I13V, the abundance fitness is -0.128 ± 0.054. With I13G, the abundance fitness was -0.206 ± 0.059. For I13H, the abundance fitness was -0.153 ± 0.078. As for I13T, the abundance fitness is -0.164 ± 0.064. For I13Q, the abundance fitness was -0.06 ± 0.14. For I13K, the abundance fitness was -0.717 ± 0.23.

As for I13E, the abundance fitness was -0.077 ± 0.14. Regarding I13L, the abundance fitness was -0.237 ± 0.061.

As to I13A, the abundance fitness is -0.135 ± 0.068. In the case of I13C, the abundance fitness was -0.407 ± 0.067. Turning to I13P, the abundance fitness is -0.646 ± 0.11. In the case of I13S, the abundance fitness is -0.406 ± 0.056. On to I13W, for which the abundance fitness was -0.684 ± 0.15. For the variant I13M, the abundance fitness was -0.106 ± 0.098. Consider I13F, for which the abundance fitness was -0.263 ± 0.059.

I13R: the abundance fitness is -0.446 ± 0.062. As for K12H, the abundance fitness is -0.006 ± 0.064. Consider K12T, for which the abundance fitness is -0.119 ± 0.08.

On to K12Y, for which the abundance fitness was -0.448 ± 0.078. Take K12Q: the abundance fitness came to 0.007 ± 0.19.

In the case of K12S, the abundance fitness was determined as 0.074 ± 0.053. In the case of K12N it was 0.014 ± 0.064. For K12F, the abundance fitness is -0.232 ± 0.067.

For K12G, the abundance fitness was -0.2 ± 0.062. In the case of K12V it was 0.012 ± 0.05; in that of K12C, -0.131 ± 0.07. Regarding K12W, the abundance fitness is -0.89 ± 0.32. Regarding K12P, the abundance fitness is -0.746 ± 0.18. With K12M, the abundance fitness is -0.043 ± 0.25. Consider K12L, for which the abundance fitness is -0.016 ± 0.074. In the case of K12E it was 0.359 ± 0.14.
